# Experimental data published in patent publication US20240366624.
# B1: recombinant human ERO1α (endoplasmic reticulum oxidoreductase 1α), wild type (protein)
# chain: EEQPPETAAQRCFCQVSGYLDDCTCDVETIDRFNNYRLFPRLQKLLESDYFRYYKVNLKRPCPFWNDISQCGRRDCAVKPCQSDEVPDGIKSASYKYSEEANNLIEECEQAERLGAVDESLSEETQKAVLQWTKHDDSSDNFCEADDIQSPEAEYVDLLLNPERYTGYKGPDAWKIWNVIYEENCFKPQTIKRPLNPLASGQGTSEENTFYSWLEGLCVEKRAFYRLISGLHASINVHLSARYLLQETWLEKKWGHNITEFQQRFDGILTEGEGPRRLKNLYFLYLIELRALSKVLPFFERPDFQLFTGNKIQDEENKMLLLEILHEIKSFPLHFDENSFFAGDKKEAHKLKEDFRLHFRNISRIMDCVGCFKCRLWGKLQTQGLGTALKILFSEKLIANMPESGPSYEFHLTRQEIVSLFNAFGRISTSVKELENFRNLLQNIH
# B2: activity-null mutant ERO1α-Cys94Ser (protein)
# chain: EEQPPETAAQRCFCQVSGYLDDCTCDVETIDRFNNYRLFPRLQKLLESDYFRYYKVNLKRPCPFWNDISQSGRRDCAVKPCQSDEVPDGIKSASYKYSEEANNLIEECEQAERLGAVDESLSEETQKAVLQWTKHDDSSDNFCEADDIQSPEAEYVDLLLNPERYTGYKGPDAWKIWNVIYEENCFKPQTIKRPLNPLASGQGTSEENTFYSWLEGLCVEKRAFYRLISGLHASINVHLSARYLLQETWLEKKWGHNITEFQQRFDGILTEGEGPRRLKNLYFLYLIELRALSKVLPFFERPDFQLFTGNKIQDEENKMLLLEILHEIKSFPLHFDENSFFAGDKKEAHKLKEDFRLHFRNISRIMDCVGCFKCRLWGKLQTQGLGTALKILFSEKLIANMPESGPSYEFHLTRQEIVSLFNAFGRISTSVKELENFRNLLQNIH
# Target: wild type STIM1, recombinant, Q13586
# Sequence (Q13586 23-213): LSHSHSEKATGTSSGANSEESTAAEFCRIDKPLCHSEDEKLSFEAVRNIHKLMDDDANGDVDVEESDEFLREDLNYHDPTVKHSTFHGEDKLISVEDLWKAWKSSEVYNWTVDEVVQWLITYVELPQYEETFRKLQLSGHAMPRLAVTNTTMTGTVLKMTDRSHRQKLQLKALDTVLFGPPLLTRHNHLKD
protein,measurement,value
B1,N-ethylmaleimide labeling on the Cys49 residue in STIM1 (mass spectrometry),"wtERO1α, but not mERO1α, decreased N-ethylmaleimide labeling on the Cys49 residue in STIM1 in a concentration-dependent manner"
B2,N-ethylmaleimide labeling on the Cys49 residue in STIM1 (mass spectrometry),"wtERO1α, but not mERO1α, decreased N-ethylmaleimide labeling on the Cys49 residue in STIM1"
